PMC12416549 (2024)
Positions count from the first letter of the chain named. In names and notes the source's numbering stands.

B1: E89N (designed binder)
chain: SMEEEVEKAAKEYEKKKKEAIEKHLEKLKAKDKEAAERFLKELEEAAKEYAKDEAKTMSEEEAKRRAKKYKEKVLLSELSEEEQKEIKNAEEKLVRTILKYVEEAAK
B2: K27W (designed binder)
chain: B1 chain with K27W, N89E
B3: L99P (designed binder)
chain: B1 chain with N89E, L99P
B4: K73D (designed binder)
chain: B1 chain with K73D, N89E
B5: L43A (designed binder)
chain: B1 chain with L43A, N89E
B6: V95N (designed binder)
chain: B1 chain with N89E, V95N
B7: R96E (designed binder)
chain: B1 chain with N89E, R96E
B8: A47N (designed binder)
chain: B1 chain with A47N, N89E
B9: K41G (designed binder)
chain: B1 chain with K41G, N89E
B10: L94P (designed binder)
chain: B1 chain with N89E, L94P
B11: E44P (designed binder)
chain: B1 chain with E44P, N89E
B12: E12D (designed binder)
chain: B1 chain with E12D, N89E
B13: S77V (designed binder)
chain: B1 chain with S77V, N89E
B14: T57N (designed binder)
chain: B1 chain with T57N, N89E
B15: V102G (designed binder)
chain: B1 chain with N89E, V102G
B16: S1G (designed binder)
chain: B1 chain with S1G, N89E
B17: K100E (designed binder)
chain: B1 chain with N89E, K100E
B18: E22C (designed binder)
chain: B1 chain with E22C, N89E
B19: A106L (designed binder)
chain: B1 chain with N89E, A106L
B20: E5G (designed binder)
chain: B1 chain with E5G, N89E
B21: E61W (designed binder)
chain: B1 chain with E61W, N89E
B22: A30M (designed binder)
chain: B1 chain with A30M, N89E
B23: R65K (designed binder)
chain: B1 chain with R65K, N89E
B24: A90C (designed binder)
chain: B1 chain with N89E, A90C
B25: E86M (designed binder)
chain: B1 chain with E86M, N89E
B26: K107S (designed binder)
chain: B1 chain with N89E, K107S
B27: E3A (designed binder)
chain: B1 chain with E3A, N89E
B28: R65Y (designed binder)
chain: B1 chain with R65Y, N89E
B29: A90T (designed binder)
chain: B1 chain with N89E, A90T
B30: E54G (designed binder)
chain: B1 chain with E54G, N89E
B31: L76G (designed binder)
chain: B1 chain with L76G, N89E
B32: K31N (designed binder)
chain: B1 chain with K31N, N89E
B33: D32N (designed binder)
chain: B1 chain with D32N, N89E
B34: E89I (designed binder)
chain: B1 chain with N89I
B35: E37D (designed binder)
chain: B1 chain with E37D, N89E
B36: E22Q (designed binder)
chain: B1 chain with E22Q, N89E
B37: E14G (designed binder)
chain: B1 chain with E14G, N89E
B38: Y13S (designed binder)
chain: B1 chain with Y13S, N89E
B39: A67C (designed binder)
chain: B1 chain with A67C, N89E
B40: K29P (designed binder)
chain: B1 chain with K29P, N89E
B41: E22T (designed binder)
chain: B1 chain with E22T, N89E
B42: K15H (designed binder)
chain: B1 chain with K15H, N89E
B43: E37M (designed binder)
chain: B1 chain with E37M, N89E
B44: Y101F (designed binder)
chain: B1 chain with N89E, Y101F
B45: K23L (designed binder)
chain: B1 chain with K23L, N89E
B46: I21L (designed binder)
chain: B1 chain with I21L, N89E
B47: E62C (designed binder)
chain: B1 chain with E62C, N89E
B48: E3C (designed binder)
chain: B1 chain with E3C, N89E
B49: L43D (designed binder)
chain: B1 chain with L43D, N89E
B50: Y50P (designed binder)
chain: B1 chain with Y50P, N89E
B51: K41A (designed binder)
chain: B1 chain with K41A, N89E
B52: K41P (designed binder)
chain: B1 chain with K41P, N89E
B53: Y70E (designed binder)
chain: B1 chain with Y70E, N89E
B54: Q84G (designed binder)
chain: B1 chain with Q84G, N89E
B55: E42A (designed binder)
chain: B1 chain with E42A, N89E
B56: E62Q (designed binder)
chain: B1 chain with E62Q, N89E
B57: D32Y (designed binder)
chain: B1 chain with D32Y, N89E
B58: A55Y (designed binder)
chain: B1 chain with A55Y, N89E
B59: H24Y (designed binder)
chain: B1 chain with H24Y, N89E

Molecular target: T1, TNFR1 (Homo sapiens, UniProt P19438)
T1 chain: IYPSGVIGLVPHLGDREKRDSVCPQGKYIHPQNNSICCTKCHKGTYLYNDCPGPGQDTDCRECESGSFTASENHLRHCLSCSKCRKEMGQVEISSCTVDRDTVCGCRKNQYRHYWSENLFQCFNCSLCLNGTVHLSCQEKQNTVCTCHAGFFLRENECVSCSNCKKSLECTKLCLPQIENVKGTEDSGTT
Experiment: yeast display SC50

Row | Binder | apparent Kd (screen) [nM]
1 | B1 | 0.956
2 | B2 | 1.16
3 | B3 | 15.2
4 | B4 | 5.84
5 | B5 | 0.49
6 | B6 | 1.16
7 | B7 | 4.39
8 | B8 | 1.4
9 | B9 | 0.869
10 | B10 | 16.7
11 | B11 | 6.43
12 | B12 | 1.05
13 | B13 | 2.73
14 | B14 | 2.05
15 | B15 | 0.446
16 | B16 | 0.653
17 | B17 | 1.54
18 | B18 | 1.05
19 | B19 | 2.25
20 | B20 | 0.446

Row | Binder | apparent Kd (screen) [nM]
21 | B21 | 1.86
22 | B22 | 0.593
23 | B23 | 0.869
24 | B24 | 0.593
25 | B25 | 0.869
26 | B26 | 1.05
27 | B27 | 1.86
28 | B28 | 11.4
29 | B29 | 0.593
30 | B30 | 11.4
31 | B31 | 11.4
32 | B32 | 0.79
33 | B33 | 0.79
34 | B34 | 3
35 | B35 | 0.539
36 | B36 | 0.718
37 | B37 | 12.5
38 | B38 | 0.49
39 | B39 | 22.2
40 | B40 | 7.78

Row | Binder | apparent Kd (screen) [nM]
41 | B41 | 0.539
42 | B42 | 0.49
43 | B43 | 0.718
44 | B44 | 0.49
45 | B45 | 0.79
46 | B46 | 1.16
47 | B47 | 2.73
48 | B48 | 7.07
49 | B49 | 6.43
50 | B50 | 4.39
51 | B51 | 0.869
52 | B52 | 2.48
53 | B53 | 0.718
54 | B54 | 12.5
55 | B55 | 10.4
56 | B56 | 0.79
57 | B57 | 13.8
58 | B58 | 10.4
59 | B59 | 1.69
